According to US6858210B1, “Therapeutic and diagnostic domain 1 β2GPI polypeptides and methods of using same” (La Jolla Pharmaceutical Co., priority 1998, dated 2005):

How the values were obtained:
[1] = test system: human β2GPI-dependent antiphospholipid antibody; assay: Micropanning of mutant domain 1 phage, patient antibodies; type: binding; details: Table 7B
rabbit anti-human β2GPI = assay: Micropanning of mutant domain 1 phage, rabbit antibody; type: binding; set-up: key: 0 (<10 colonies) to 4+ (confluent) semiquantitative colony score; details: Table 7B
Experimental: Error prone PCR was carried out as follows. Domain 1 of human β2GPI was amplified by PCR under conditions that enhance the error rate of Taq polymerase. The primers were such that amino acids 1-64 were amplified. A Sfc 1 restriction site was incorporated as part of amino acid 1. At the 3′ end a Sal 1 restriction site was incorporated after amino acid 64. The PCR reaction was done as described by Leung et al. (1989) Technique 1:11, using 0.25 mM MnCl2. The PCR product was digested with Sfc 1 and Sal 1 and cloned into fd-tet-DOG2 that had been digested with Apal 1 and Sal 1. This positions domain 1 at the N-terminus of pill immediately after the pill signal sequence. The ligation reaction was electroporated in E. coli K91. Phage were harvested and titered by standard methods. Resulting phage clones were assayed using a micropanning technique.
Immulon type 2 plates were coated with protein G. Protein G was prepared at 5 μg/mL in 0.1 M NaHCO3 and 100 μL per well was added to the wells of microtitration plates and incubated overnight at 4° C. After discarding excess protein G solution from plates, each well was blocked with 200 μL 2YT for 1 hour at RT with agitation on an oscillating platform. Tris-buffered saline, pH 7.4/0.5% Tween 20 (TBS/Tween), was used with an automatic plate washer to wash the wells 4 times with 200 μL. One hundred μL human β2GPI-dependent antiphospholipid 6626, 6501, 6701, rabbit β2GPI-dependent antiphospholipid, or control normal IgG, diluted to 2.5 μg/mL with 2YT, was added to washed wells. The plate was incubated for 1 hour at room temperature on a rotating platform.
Phage to be tested by micropanning were obtained from the agar plates generated by biopanning. Each clone to be tested was transferred using sterile toothpicks to a separate well of a round-bottom 96-well microtitration plate (Corning, Corning, N.Y.) containing 200 μL 2YT/Tet per well and cultured overnight at 30° C. Following overnight incubation, phage cultures were centrifuged using a microtitration plate holder at 1300×g for 10 minutes at room temperature. Supernatants constituted the source of “neat” phage. The neat phage were diluted 1: 100-1:1000 and 100 μL was added to the plate containing protein G-bound β2GPI-dependent antiphospholipid antibody-6501 and normal IgG prepared as described above. The incubation of dilute phage with aPL antibody or control IgG was carried out for 2 hours at room temperature on a flat rotator. After 9 washes with TBS/Tween in an automated plate washer, the IgG-bound phage was eluted with 20 μL of 0.2 N HCl-glycine/0.1% BSA, pH 2.2. The elution incubation continued for 10 minutes at RT, during which time a new Corning microtitration plate was prepared containing 20 μL of freshly starved E. coli per well and kept chilled. One hundred forty μL of 29 mM Tris was added to the plate containing the phage eluates in order to neutralize the pH, following which 20 μL of phage suspension was transferred from each well to the corresponding well in the plate containing starved E. coli. After a 10 minute incubation at 37° C., 200 μL 2YT was added and incubation carried out an additional 30 minutes at 37° C. Using multichannel pipettors, 8 μL from each well was spotted on a large 2YT/Tet agar plate while retaining the original 8×12 well pattern and orientation from the last microtitration plate. After allowing the spots to dry for 30 minutes, the plate was incubated overnight at 30° C. The following day, colonies were semiquantitatively scored from 0 to 4+, with 0 symbolizing <10 colonies; 1+=10-30; 2+=30 colonies to 70% confluent; 3+=70%-90% confluent; 4+=confluent.
For Table 7A, the rabbit anti-human β2GPI was performed on two separate occasions. Mutations are listed with the original amino acid, the position number, and the identity of the amino acid at that position in the mutant. […] Non-mutated domain 1 have a score of 3+, while domain 5 phage gave a score of −. Silent mutations are not shown. […]

B1: 3C3: phage clone, domain 1 mutant L52P (protein)
chain: GRTCPKPDDLPFSTVVPLKTFYEPGEEITYSCKPGYVSRGGMRKFICPLTGPWPINTLKCTPRV
Micropan score ([1]; antibody 6226): 1 | Micropan score ([1]; antibody 6501): 1 | Micropan score ([1]; antibody 6632): 0 (0 symbolizing <10 colonies) | Micropan score ([1]; antibody 6644): 1 | Micropan score ([1]; antibody 6701): 1 | Micropan score ([1]; antibody 7008): 1 | Micropan score (rabbit anti-human β2GPI; 5th column): 4

B2: 3A4: phage clone, domain 1 multiple mutant D8A, S13T (protein)
chain: GRTCPKPADLPFTTVVPLKTFYEPGEEITYSCKPGYVSRGGMRKFICPLTGLWPINTLKCTPRV
Micropan score ([1]; antibody 6226): 3 | Micropan score ([1]; antibody 6501): 3 | Micropan score ([1]; antibody 6632): 3 | Micropan score ([1]; antibody 6644): 4 | Micropan score ([1]; antibody 6701): 3 | Micropan score ([1]; antibody 7008): 3 | Micropan score (rabbit anti-human β2GPI; 5th column): 4

B3: 4A6: phage clone, domain 1 mutant D8G (protein)
chain: GRTCPKPGDLPFSTVVPLKTFYEPGEEITYSCKPGYVSRGGMRKFICPLTGLWPINTLKCTPRV
Micropan score ([1]; antibody 6226): 2 | Micropan score ([1]; antibody 6501): 2 | Micropan score ([1]; antibody 6632): 2 | Micropan score ([1]; antibody 6644): 3 | Micropan score ([1]; antibody 6701): 2 | Micropan score ([1]; antibody 7008): 2 | Micropan score (rabbit anti-human β2GPI; 5th column): 4

B4: 4D1: phage clone, domain 1 multiple mutant N56T, R63G (protein)
chain: GRTCPKPDDLPFSTVVPLKTFYEPGEEITYSCKPGYVSRGGMRKFICPLTGLWPITTLKCTPGV
Micropan score ([1]; antibody 6226): 4 | Micropan score ([1]; antibody 6501): 2 | Micropan score ([1]; antibody 6632): 3 | Micropan score ([1]; antibody 6644): 4 | Micropan score ([1]; antibody 6701): 4 | Micropan score ([1]; antibody 7008): 2 | Micropan score (rabbit anti-human β2GPI; 5th column): 4

B5: 3G1: phage clone, domain 1 multiple mutant R2W, S38T (protein)
chain: GWTCPKPDDLPFSTVVPLKTFYEPGEEITYSCKPGYVTRGGMRKFICPLTGLWPINTLKCTPRV
Micropan score ([1]; antibody 6226): 1 | Micropan score ([1]; antibody 6501): 1 | Micropan score ([1]; antibody 6632): 1 | Micropan score ([1]; antibody 6644): 1 | Micropan score ([1]; antibody 6701): 1 | Micropan score ([1]; antibody 7008): 1 | Micropan score (rabbit anti-human β2GPI; 5th column): 4

B6: SC10: phage clone, domain 1 mutant N56D (protein)
chain: GRTCPKPDDLPFSTVVPLKTFYEPGEEITYSCKPGYVSRGGMRKFICPLTGLWPIDTLKCTPRV
Micropan score ([1]; antibody 6226): 3 | Micropan score ([1]; antibody 6501): 3 | Micropan score ([1]; antibody 6632): 3 | Micropan score ([1]; antibody 6644): 3 | Micropan score ([1]; antibody 6701): 3 | Micropan score ([1]; antibody 7008): 4 | Micropan score (rabbit anti-human β2GPI; 1st column): 4 | Micropan score (rabbit anti-human β2GPI; 2nd column): 4 | Micropan score (rabbit anti-human β2GPI; 3rd column): 4 | Micropan score (rabbit anti-human β2GPI; 4th column): 4

B7: 3F12: phage clone, domain 1 multiple mutant L10I, P17Q, Y22C (protein)
chain: GRTCPKPDDIPFSTVVQLKTFCEPGEEITYSCKPGYVSRGGMRKFICPLTGLWPINTLKCTPRV
Micropan score ([1]; antibody 6226): 1 | Micropan score ([1]; antibody 6501): 1 | Micropan score ([1]; antibody 6632): 1 | Micropan score ([1]; antibody 6644): 1 | Micropan score ([1]; antibody 6701): 1 | Micropan score ([1]; antibody 7008): 1 | Micropan score (rabbit anti-human β2GPI; 5th column): 4

B8: Dom5: phage displaying wild type (WT) domain 5 (protein)
chain: CKLPVKKATVVYQGERVKIQEKFKNGMLHGDKVSFFCKNKEKKCSYTEDAQCIDGTIEVPKCFKEHSSLAFWKTDASDVKPC
modifications: left off: large carriers
Micropan score ([1]; antibody 6226): 0 (0 symbolizing <10 colonies) | Micropan score ([1]; antibody 6501): 0 (0 symbolizing <10 colonies) | Micropan score ([1]; antibody 6632): 0 (0 symbolizing <10 colonies) | Micropan score ([1]; antibody 6644): 0 (0 symbolizing <10 colonies) | Micropan score ([1]; antibody 6701): 0 (0 symbolizing <10 colonies) | Micropan score ([1]; antibody 7008): 0 (0 symbolizing <10 colonies) | Micropan score (rabbit anti-human β2GPI; 1st column): 4 | Micropan score (rabbit anti-human β2GPI; 2nd column): 4 | Micropan score (rabbit anti-human β2GPI; 3rd column): 4 | Micropan score (rabbit anti-human β2GPI; 4th column): 4 | Micropan score (rabbit anti-human β2GPI; 5th column): 0 (0 symbolizing <10 colonies)

B9: 4G8: phage clone, domain 1 mutant P11L (protein)
chain: GRTCPKPDDLLFSTVVPLKTFYEPGEEITYSCKPGYVSRGGMRKFICPLTGLWPINTLKCTPRVAETVESCLAKLHTENSFTNVWKDDKTLDRYANYEGCLWNATGVVVCTGDETQCYGTWVPIGLAIPENEGGGSEGGGSEGGGSEGGGTKPPEYGDTPIPGYTYINPLDGTYPPGTEQNPANPNPSLEESQPLNTFMFQNNRFRNRQGALTVYTGTVTQGTDPVKTYYQYTPVSSKAMYDAYWNGKFRDCAFHSGFNEDPFVCEYQGQSSDLPQPPVNAGGGSGGGSGGGSEGGGSEGGGSEGGGSEGGGSGGGSGSGDFDYEKMANANKGAMTENADENALQSDAKGKLDSVATDYGAAIDGFIGDVSGLANGNGATGDFAGSNSQMAQVGDGDNSPLMNNFRQYLPSLPQSVECRPYVFGAGKPYEFSIDCDKINLFRGVFAFLLYVATFMYVFSTFANILRNKES
Micropan score ([1]; antibody 6226): 2 | Micropan score ([1]; antibody 6501): 2 | Micropan score ([1]; antibody 6632): 2 | Micropan score ([1]; antibody 6644): 3 | Micropan score ([1]; antibody 6701): 2 | Micropan score ([1]; antibody 7008): 3 | Micropan score (rabbit anti-human β2GPI; 5th column): 4
